{"source": "paper PMC12612255", "molecular_target": "CNOT1 (UniProt A5YKK6)", "assay": "co-IP with FLAG-tagged YTHDF2", "conditions": "reference: wild type; sites S39"}
{"substance": "YTHDF2 (from UniProt Q9Y5A9) S39A", "values": [{"measurement": "binding against the reference", "value": "weaker"}]}
